Measurements as given in the Immune Epitope Database (IEDB).
pKd: −log10 of the molar value.

Experiments:
HLA-B*15:03 = test: IEDB peptide-MHC binding, purified MHC/competitive/radioactivity; filed as Kd, often an IC50 or EC50 that approximates it; ≥ and ≤ were set here for values at or beyond the usual limits of such assays
HLA-B*40:02 = test: as above
HLA-B*18:01 = test: as above
HLA-B*45:01 = test: as above
HLA-B*44:02 = test: as above
HLA-B*44:03 = test: as above
HLA-B*40:01 = test: as above
HLA-B*15:01 = test: as above; settings: source organism: Vaccinia virus WR
HLA-A*30:01 = test: as above; settings: source organism: Vaccinia virus WR
HLA-A*32:01 = test: as above; settings: source organism: Vaccinia virus WR
HLA-B*08:01 = test: as above; settings: source organism: Vaccinia virus WR
HLA-A*03:01 [1] = test: IEDB peptide-MHC binding, purified MHC/direct/fluorescence; filed as Kd, often an IC50 or EC50 that approximates it; ≥ and ≤ were set here for values at or beyond the usual limits of such assays
HLA-A*11:01 [2] = test: as above
HLA-A*31:01 [3] = test: IEDB peptide-MHC binding, purified MHC/competitive/fluorescence; filed as Kd, often an IC50 or EC50 that approximates it; ≥ and ≤ were set here for values at or beyond the usual limits of such assays
HLA-A*02:12 = test: IEDB peptide-MHC binding, purified MHC/direct/fluorescence; filed as Kd, often an IC50 or EC50 that approximates it; ≥ and ≤ were set here for values at or beyond the usual limits of such assays; settings: source organism: Bacillus cereus 03BB108
HLA-A*02:03 = test: IEDB peptide-MHC binding, purified MHC/competitive/radioactivity; filed as Kd, often an IC50 or EC50 that approximates it; ≥ and ≤ were set here for values at or beyond the usual limits of such assays
HLA-A*02:02 = test: as above
HLA-A*02:06 = test: as above
HLA-A*68:01 = test: as above
HLA-A*02:01 [4] = test: as above; settings: source organism: Human alphaherpesvirus 1 strain 17
HLA-A*02:01 [5] = test: IEDB peptide-MHC binding, purified MHC/competitive/fluorescence; filed as Kd, often an IC50 or EC50 that approximates it; ≥ and ≤ were set here for values at or beyond the usual limits of such assays; settings: source organism: Vaccinia virus L-IPV
HLA-A*33:01 = test: IEDB peptide-MHC binding, purified MHC/competitive/radioactivity; filed as Kd, often an IC50 or EC50 that approximates it; ≥ and ≤ were set here for values at or beyond the usual limits of such assays; settings: source organism: Vaccinia virus Copenhagen
HLA-B*07:02 = test: as above; settings: source organism: Vaccinia virus Copenhagen
HLA-A*31:01 [6] = test: as above; settings: source organism: Vaccinia virus Copenhagen
HLA-A*03:01 [7] = test: as above; settings: source organism: Vaccinia virus Copenhagen
HLA-A*11:01 [8] = test: as above; settings: source organism: Vaccinia virus Copenhagen
HLA-B*35:01 = test: as above; settings: source organism: Vaccinia virus Copenhagen
HLA-B*54:01 = test: as above; settings: source organism: Vaccinia virus Copenhagen
HLA-B*53:01 = test: as above; settings: source organism: Vaccinia virus Copenhagen
HLA-B*51:01 = test: as above; settings: source organism: Vaccinia virus Copenhagen
[9] = source organism: Vaccinia virus WR
[10] = source organism: Mammarenavirus juninense
[11] = source organism: Orthohantavirus dobravaense
[12] = source organism: SARS coronavirus Tor2
[13] = source organism: Mammarenavirus brazilense
[14] = source organism: Mammarenavirus lassaense
[15] = source organism: Vaccinia virus Copenhagen
[16] = source organism: Vibrio vulnificus

## AMKVDANYF
HLA-B*15:03; [9]
  pKd: 9.83

## PELELNVDAM
HLA-B*40:02; [10]
  pKd: 6.10
HLA-B*18:01; [10]
  pKd: 6.44
HLA-B*45:01; [10]
  pKd: ≤ 4.15
HLA-B*44:02; [10]
  pKd: ≤ 4.15
HLA-B*44:03; [10]
  pKd: ≤ 4.15
HLA-B*40:01; [10]
  pKd: ≤ 4.16

## ELRDYFEQI
HLA-B*15:01
  pKd: 5.66
HLA-B*15:03; [9]
  pKd: 7.10
HLA-A*30:01
  pKd: ≤ 4.42
HLA-A*32:01
  pKd: ≤ 4.11
HLA-B*08:01
  pKd: 7.90

## VTYDYIIPK
HLA-A*03:01 [1]; [11]
  pKd: 7.29
HLA-A*11:01 [2]; [11]
  pKd: 8.92
HLA-A*31:01 [3]; source organism: Kurkino virus
  pKd: 7.37

## VLFMVAWGK
HLA-A*03:01 [1]; source organism: Amur virus
  pKd: 5.65
HLA-A*11:01 [2]; source organism: Amur virus
  pKd: 7.12
HLA-A*31:01 [3]; source organism: Hantaan virus 76-118
  pKd: 6.79

## GMFDWESMK
HLA-A*03:01 [1]; source organism: Bacillus mycoides
  pKd: 6.68
HLA-A*02:12
  pKd: 6.13

## NMGVAMNLF
HLA-B*15:03; [9]
  pKd: 6.00

## IMRNFLRSI
HLA-B*15:03; [9]
  pKd: 6.97
HLA-A*02:03; [9]
  pKd: 9.40
HLA-A*02:02; [9]
  pKd: 6.31
HLA-A*02:06; [9]
  pKd: 5.41

## YQHFVARVF
HLA-B*15:03; [9]
  pKd: 9.40

## RELYLNSSNV
HLA-B*40:02; [12]
  pKd: 7.72
HLA-B*18:01; [12]
  pKd: ≤ 4.15
HLA-B*45:01; [12]
  pKd: 7.02
HLA-B*44:02; [12]
  pKd: 5.67
HLA-B*44:03; [12]
  pKd: 5.97
HLA-B*40:01; [12]
  pKd: 6.74

## EEVPNIIHEA
HLA-B*40:02; [13]
  pKd: 6.10
HLA-B*18:01; [13]
  pKd: 4.91
HLA-B*45:01; [13]
  pKd: 6.57
HLA-B*44:02; [13]
  pKd: ≤ 4.57
HLA-B*44:03; [13]
  pKd: 4.80
HLA-B*40:01; [13]
  pKd: ≤ 4.69

## RQFEKDRSF
HLA-B*15:03; [9]
  pKd: 9.84

## AVSMANIFR
HLA-A*11:01 [2]; source organism: Dengue virus 1 Singapore/S275/1990
  pKd: 8.05
HLA-A*31:01 [3]; source organism: dengue virus type 1
  pKd: 8.86
HLA-A*68:01; source organism: Dengue virus 2 Jamaica/1409/1983
  pKd: 7.26

## RSKDTHVFA
HLA-B*15:03; [9]
  pKd: 6.74
HLA-A*30:01
  pKd: 10.73

## HDFGIPTPS
HLA-B*40:02; [14]
  pKd: 7.12
HLA-B*18:01; [14]
  pKd: 4.74
HLA-B*45:01; [14]
  pKd: 5.84
HLA-B*44:02; [14]
  pKd: ≤ 4.17
HLA-B*44:03; [14]
  pKd: ≤ 4.11
HLA-B*40:01; [14]
  pKd: 4.86

## FSVSFSPSL
HLA-B*15:03; [15]
  pKd: 7.66

## KGNVSALVK
HLA-A*03:01 [1]; [16]
  pKd: 5.94
HLA-A*11:01 [2]; [16]
  pKd: 6.73
HLA-A*31:01 [3]; source organism: Vibrio vulnificus YJ016
  pKd: ≤ 4.70

## IMFAKTLDF
HLA-B*15:03; [9]
  pKd: 9.51
HLA-A*32:01
  pKd: 8.17

## RKNHIYNSF
HLA-B*15:03; [9]
  pKd: 9.88

## LLTTPKFTV
HLA-A*02:01 [4]
  pKd: 6.30

## NLFDIPLLTV
HLA-A*02:01 [5]
  pKd: ≥ 10.00
HLA-A*33:01
  pKd: 4.93
HLA-B*07:02
  pKd: 4.77
HLA-A*31:01 [6]
  pKd: ≤ 4.65
HLA-A*03:01 [7]
  pKd: ≤ 4.32
HLA-A*11:01 [8]
  pKd: ≤ 4.16
HLA-B*35:01
  pKd: ≤ 4.16
HLA-B*54:01
  pKd: 4.73
HLA-A*02:03; [15]
  pKd: 9.60
HLA-A*68:01; [15]
  pKd: ≤ 4.66
HLA-B*53:01
  pKd: ≤ 4.16
HLA-B*51:01
  pKd: ≤ 4.16
HLA-A*02:02; [15]
  pKd: 10.00
HLA-A*02:06; [15]
  pKd: 8.81
